In the assay the target is GAL4-CREB fusion protein (Stratagene): CREB activation domain fused with the yeast GAL4 DNA binding domain (amino acids 1-147) (yeast) (UniProt P04386). The experiment in a line: cell-based or functional assay.

In turn, “human CREAP1 (CRE activating protein 1), full length (from UniProt Q6UUV9 1-634)” returned a Fold Induction (luciferase from the genome-integrated pFR-Luc/UAS-Luc reporter in HLR cells, GAL4-CREB co-transfected with CREAP1, normalized to pCMV-BD vector) of 233 fold.

The substance “human CREAP2, full length (from UniProt Q53ET0 1-693)” gave a Fold Induction (luciferase from the genome-integrated pFR-Luc/UAS-Luc reporter in HLR cells, GAL4-CREB co-transfected with CREAP2, normalized to pCMV-BD vector) of 178 fold.

Regarding “human CREAP3, full length (from UniProt Q6UUV7 1-619)”, the Fold Induction (luciferase from the genome-integrated pFR-Luc/UAS-Luc reporter in HLR cells, GAL4-CREB co-transfected with CREAP3, normalized to pCMV-BD vector) is 448 fold.
